Source: the DeepSol protein solubility set

Assay: soluble on expression in E. coli; label from the status in PepcDB or PDB records

Soluble on expression in E. coli, soluble:
KGHLTRLGLEFFDQPAVPLARAFLGQVLVRRLPNGTELRGRIVETEAYLGPEDEAAHSRGGRQTPRNRGMFMKPGTLYVYIIYGMYFCMNISSQGDGACVLLRALEPLEGLETMRQLRSTLRKGTASRVLKDRELCSGPSKLCQALAINKSFDQRDLAQDEAVWLERGPLEPSEPAVVAAARVGVGHAGEWARKPLRFYVRGSPWVSVVDRVAEQDTQA
AHHHHHHGSKYDVVVVGSGVAGPIVARDVAKAGFSVLLVDKKPAIGTPKQCAEGINVNVFKEFDIPYDKRFINREIYGARIYSPSGYTAELRYDKVSGVILERKVFDKMLAYYAAKAGADVWARTEVIDLLRKEGKIMGVKAKHEGELVEIEAKIIVAADGVESTVARLAGINTYAPPHEFDSAYEYEMIIEGYDPDLIHLWFGNEIAPRGYVWVFPKDEDRANVGIGINSDNEKTAKYYLDKWLKENNIPTKKILEINVGLVPVGGFVRELVKENVAVVGDAARQVNPVHGGGMYEAMKAANILAKWIVKALEEENLELLKNYTKEWWEVEGPKMERLLKLRRAMEKLTDEDIDVFVQLLGGTDLEKLAGGNYFEVVKALMKHPKVLMSKRRLEILKALL
MDGLFEFCQLSTGGSVAGAVKLNRQQTDMAVNWAGGLHHAKKYEASGFCYVNDIVLAILELLKYHQRVLYIDIDIHHGDGVEEAFYTTDRVMTVSFHKYGEYFPGTGDLRDIGAGKGKYYAVNFPMCDGIDDESYGQIFKPIISKVMEMYQPSAVVLQCGADSLSGDRLGCFNLTVKGHAKCVEVVKTFNLPLLMLGGGGYTIRNVARCWTYETAVALDCEIPNELPYNDYFEYFGPDFKLHISPSNMTNQNTPEYMEKIKQRLFENLRMLPHAPGVQMQAIPEDAVHEDSGDEDGEDPDKRISIRASDKRIACDEEFSDSEDEGEGGRRNVADHKKGAKKARIEEDKKETEDKKTDVKEEDKSKDNLEHHHHHH
MSLGQNRLELLLFRLDGQQLYGINVFKVREVLQCPQLTLMPKSSPVVCGVANIRGATIPILDLAMATGSGALKDKNSPFVIITEYNTKTQGFLVRSVERIVNMNWEEIHPPPKGTGRDHYLTAVTRVDNQLVEIIDVEKVLAEVAPTPEAISVGVVDVETQSKALSLRVLTVDDSSVARKQVTRCLQTVGVEVVALNDGRQALDYLRKLVDEGKKPEEEFLMMISDIEMPEMDGYTLTAEIRSDPRMQKLHIILHTSLSGVFNQAMVKKVGADDFLAKFRPDDLASRVVDRIKAADISEGHHHHHH
MAHHHHHHMGACGSKGSTSDKGLASDKDGKNAKDRKEAWERIRQAIPREKTAEAKQRRIELFKKFDKNETGKLCYDEVHSGCLEVLKLDEFTPRVRDITKRAFDKARVLGSKLENKGSEDFVEFLEFRLMLCYIYDFFELTVMFDEIDASGNMLVDEEELKRAVPKLEAWGAKVEDPAALFKEIDKNGTGSVTFDEFAAWASAVKLDADGDPDNVPERA

Soluble on expression in E. coli, not soluble:
MSLMPRIKPLLVLCAALLTVTPAASADVNSDMNQFFNKLGFASNTTQPGVWQGQAAGYAYGGSLYARTQVKNVQLISMTLPDINAGCGGIDAYLGSFSFINGEQLQRFVKQIMSNAAGYFFDLALQTTVPEIKTAKDFLQKMASDINSMNLSSCQAAQGIIGGLFPRTQVSQQKVCQDIAGESNIFADWAASRQGCTVGGKSDSVRDKASDKDKERVTKNINIMWNALSKNRMFDGNKELKEFVMTLTGSLVFGPNGEITPLSARTTDRSIIRAMMEGGTAKIYHCNDSDKCLKVVADTPVTISRDNALKSQITKLLASIQNKAVSDTPLDDKEKGFISSTTIPVFKYLVDPQMLGVSNSMIYQLTDYIGYDILLQYIQELIQQARAMVATGNYDEAVIEHINDNMNDATRQIAAFQSQVQVQQDALLVVDRQMSYMRQQLSARMLSRYQNNYHFGGSTLEGHHHHHH
MQFIKNLQLNKKKDSDSSEQVLTNKKNKMKYEDFNFIRTLGTGSFGRVILATYKNGNYPPVAIKRFEKCKIIRQKQVDHVFSERKILNYINHPFCVNLHGSFKDDSYLYLVLEFVIGGEFFTFLRRNKRFPNDVGCFYAAQIVLIFEYLQSLNIVYRDLKPENLLLDKDGFIKMTDFGFAKIVETRTYTLCGTPEYIAPEILLNVGHGKAADWWTLGIFIYEILVGCPPFYANEPLLIYQKILEGIIYFPKFLDNNCKHLMKKLLSHDLTKRYGNLKKGAQNVKEHPWFSNIDWVNLLNKNVEVPYKPKYKNIFDSSNFERVQEDLTIADKITNENDPFYDW
MGSDKIHHHHHHMKAYLVGLYTLTPTHPGSGTELGVVDQPIQRERHTGFPVIWGQSLKGVLRSYLKLVEKVDEEKINKIFGPPTEKAHEQAGLISVGDAKILFFPVRSLKGVYAYVTSPLVLNRFKRDLELAGVKNFQTEIPELTDTAIASEEITVDNKVILEEFAILIQKDDKGILESVVKAIEQAFGNEMAEKIKGRIAIIPDDVFRDLVELSTEIVARIRINAETGTVETGGLWYEEYIPSDTLFYSLILVTPRAKDNDMALIKEVLGKINGKYLQIGGNETVGKGFVKVTLKEVTNNGGTHAK
MRQKLGNTDQAADLVQDTFIKLLQTRDELFGIKEPRAYLTSIAKNLLIDQVRRKRIEQAYLDGLSQMKYMLDAVASPEDQMQIIQAINQLCKALEGVSEKAQQAFILHYLEGYTHKEIAERLNVSTKMIQKYLASCLIQCYQNRQDMDACI
MGSDKIHHHHHHMSTEKIFIIGLPRTATTSVCLAMLEQGYKTAHNAYTQDSFSQAQVLADTPIFCDYQTLDKDFPNSRFIHLTRAPELWLPSIKQLLQRMLVNLQRTDGGFNPHIKRCYSETFSPLTEENINSDEFLLDCYTRHQQGITEHFQDRPQDLLTIDVGDEGSYLAMLSFLNIEKEKAREGGFKQINIGGKVRAWQHLNNPLKVESTNKGRIDKVLY
MASTRPDNVLVWMASRGSYVESMPGTILRIKNASKFGENLYGFKDQPGELVEVTWDAMFKLRPTLVEVDFGRNPCDELVKVIEKNYNNEQISHFFEKVKALSLHMTDITSESLLKLMDKFTLLAAFSFSETKFSTPEWATILKRLSELNLRGIDLSDNILSEVQQHIDVSLMKLSGNPGVDVNEFKKGIEFVTVKVLAVQELKFLGETDAEQLLEVLPQSFPRLETLIWDWNVVDPELNFDERTKKVLDQLLFVNKQLNLGSLAVVAYTPNPETKTAIESVARTLKGSIKDVQLHQFATKGLSDGMANFSLIVAGNNEKAMKELMDMYMVDRSTMPPMGKLLRLCEEDIVPIYPAITMDFGGFNKNRIRQLYTESPTD
MGSDKIHHHHHHMSKKFNCSIKRIRFDENYRPADSTRLTTNFANLARGEHREENLRKTLRMINNRFNALAHWDNPTADRYSVEVDIISIDMDVAGNGHTFPVIETLKTTIVDHKENTRIDGMMGNSFSSYVRDYDFSVVLPEHFNNHSTSPVSAPPEDFGDLHGKLFQYLLNSEAYKAQFNNKLVICLSVSTSKTYHRTTNQHPVLGVEYKQDDYSLTDDYFHKMGLTVRYFMPANSAAPLAFYFAGDLLTDYTDLELISAISTMETFQKIYRPEIYNANATAGEVYQPSLKYQDYSLTQIVYDRAERSQMAVKQGKFTEEQFIKPYQAILEEWAASYDVASKKNLHQ
MLTDLEKNAIRDHYQNIGKNLPGFRPRASQREMIAAVANAFSRTLAREEGGEPPKREGESIAVIEGPTGVGKSLAYLLAGGIMAQTRGKRLIVSSATVALQEQLVDRDLPFLVEKSGLELTFALAKGRGRYLCPYKLYRLTQSNAQQNLLGFEAPAVLWDSKPKPEELKLLRDIADEFSARRFNGDRDTWPEKIDDAIWLKVTNDRHGCLKTACPNRPECPFYLARDVLETVDVVVANHDLLLADISMGGGVILPAPENSFYCIDEAHHLPKKALSRFAAEHSWNIAVWTLEKLPQLTGKIAALTDKAELANLADEAAASLLDSLHEWQFHLAEEPSLSLGVSENDRRTNSEPTWLWEDGKIPEGLETTVSNTAIAARSLLKHVIGLNDALSAARREKEQDGALLDRLTSEFGLFIARIEQISAVWDLLSTVPLEGEEPLAKWITRRADDKNDYIFNASPISSASHLANSLWRRAAGAVLTSATLQSLGNFNLMLRQTGLQWLPETTTLALKSPFDFEKQGELYIPPIYASPKDPEAHTAAVIEWLPKLISPTEAIGTLVLFSSRKQMQDVALRLPGDYLPLLLVQGELPKAVLLQKHHRAIEEGKASIIFGLDSFAEGLDLPGTACVQVIIAKLPFAMPDNPIEKTQNRWIEQRGGNPFIEITVPEAGIKLIQAVGRLIRTEQDYGRVTILDNRIKTQRYGQQLLAGLPPFKRIG
MGSDKIHHHHHHMEMDERFKDKWYLVKYKFFSNPFYKDFDVYDSSNNVVFTARMNALNPVTRDIVVYEVNKARSEILLISGKHFIRWPNNFEMTSIATREKIGTFRNGPAGWAVLDEYGRQVAILKRIEDPSGAIMYQIRMDSTSVCEYRFINIITPVIMIDFPDESIFSKKMGIGLALVLGYQSVAFNYTYQGW
MGSDKIHHHHHHMAVVQHHLPLSARLPARGIFEDDWRDRPSKRHPYPVILIHGTGVTKGDWMELGHALRSLGYAVWAPDFGMRSTAAVAESAAQVGAYIDAVLTVTKAKKAIVVGHSQGGILARYWMHNLDGANKVSHLISLAVPHHGTSHGGMMSPLGRTPRGTAVIDSLITGFFGASGFEMLHDSELIAQLNEHGDTLPYVYYSCIATRSDTIIQPVESCFLHGKLVRNIYAQAVSKHAIILHEDMPHDPRVRRLVIAEIERVERLTIPS
MADSTPILFDRRLLAARLHRAAALGPAPFLLDRVAEEMDERLHAVLRDFTEVADLWTPGGLKLQRFPKLAHLAVDPSGSEALPFAPGSLDLVVSALALQFANDLPGVLAQLRRALKPDGLLLAALTGGETLTELRQAFASAEAEIEGGVSPRVAPAADLRDLGALLQRAGFALPVTDVDRVVVRYDHAFALMQDLRRMGATNVLIERRRTPLRRATLTRMAQIYADRFSDPDGRIRATFEIVWLSGWSPHESQQQPLKPGSAKVSLEEAVRGKRLEHHHHHH
MGRMIDGDWRTEADMNEHSDDGAFERDTTSFRHWVGDDVPPAAGRYHLYVSYACPWAHRTLLVRALLGLEDAISVSVVDPVRYDQGWTFDPEKPGCTPDHVFGGTHLRDVYTEADPEYTGRVTVPVLYDTDADTIVNNESEEIMRMLDVAFDDHAARDVDLYPEGYRDEVDRLIEDIYDPINNGVYRAGFADSQRAYDNAVDDLFEALAHYDDVLAEQRYLAGDVLTEADVAMFTTLYRFDEVYHTHFKCNRKRISDYDNLWPYLRELCQLPGVADTLYMEHVKQHYYRSHGHLNPKRLVPTGPNPAFFAPHDRDQLEHHHHHH
GPGSMRGIARPTVATVGLSQQVVAFDEWVWALNELGGRESFRKNWRYYALRIDTVHFLMFVLDVLNGQALDEARQYLKEVTSHYHEVPLLVVFNNFREGHRRFDISEFEALIHLDKLRRRHGADVLSCVCDISVVHSKNRQLPRTLSSTLRTLSSLLKARSKSENGGDGGAPPVPKATTSFSASVVGGAAGDAAAGDGVVHS
MSMIHKFSMNGYNIVLDVNGGAVHVLDDVAYDLLDFYKEKSKEEILEILKSKYQEEKINEAYEEILNLEKEGLLYTEDTYQYHPSFVHREPVVKALCLNVAHDCNLKCKYCFAAQGDFGGEKELMSFEVGKAAIDYLIANSGSRKNLEIDFFGGEPLMNFEVVKQLVDYGRSVEKDYNKNIRFTITTNGVLLNDEIIDYINENMHNVVLSLDGRKEVNDNMRPTLNDKGSYDITLPRFKKLVEKRSKDKYYYIRGTFTRDNLDFSKDVMHFADLGFKLTSVEPVVGDESNPYALREEDLPKIFEEYEKFAVEYADRQLQGDGFKFFHFMIDLNQGPCVIKRITGCGAGNEYLSVTPNGDIYPCHQFVGNEEFKMANIFDEEIVLPENLKNMFREAHVYTKEECKQCWNKFYCSGGCHANAINFNSDISKPYELGCEMQRKRTECSIMIQAKLMLEGATN
